The values below come from paper PMC7961048 (2021).

Usually Kd stands for the equilibrium constant for the complex coming apart. Lower therefore signals tighter binding.

For experiment [1], the target named is T1, HPV33 E6 phospho-PBM peptide p33E6 (human papillomavirus type 33). Put plainly: FP.
Experiment [2] concerns the target T2, HPV35 E6 phospho-PBM peptide p35E6 (human papillomavirus type 35). Put plainly: FP.
Experiment [3] concerns the target T1, HPV33 E6 phospho-PBM peptide p33E6. In words: FP. The source holds these as a separate data set.
Experiment [4] has as its target T2, HPV35 E6 phospho-PBM peptide p35E6. Put plainly: FP. This is another data set of the same source.
The target of experiment [5] is T1, HPV33 E6 phospho-PBM peptide p33E6. Put plainly: FP; +FSC.
The target of experiment [6] is T2, HPV35 E6 phospho-PBM peptide p35E6. In words: FP; +FSC.
Experiment [7] concerns the target T1, HPV33 E6 phospho-PBM peptide p33E6. Put plainly: FP; with FSC.
Experiment [8] concerns the target T2, HPV35 E6 phospho-PBM peptide p35E6. Put plainly: FP; with FSC.

B1: full-length human 14-3-3ζ fused to the C terminus of MBP (natural protein)
chain: MDKNELVQKAKLAEQAERYDDMAACMKSVTEQGAELSNEERNLLSVAYKNVVGARRSSWRVVSSIEQKTEGAEKKQQMAREYREKIETELRDICNDVLSLLEKFLIPNASQAESKVFYLKMKGDYYRYLAEVAAGDDKKGIVDQSQQAYQEAFEISKKEMQPTHPIRLGLALNFSVFYYEILNSPEKACSLAKTAFDEAIAELDTLSEESYKDSTLIMQLLRDNLTLWTSDTQGDEAEAGEGGEN
In the case of B1, the Kd came to 2.7 µM in experiment [1]; 191 µM in experiment [2]; 2.72 µM in experiment [3]; 191 µM in experiment [4]; 3.9 µM in experiment [5]; 294 µM in experiment [6]. The Kd in experiment [7] stood at 3.94 µM; in experiment [8], 294 µM.
